The results in this text go back to the nanobody polyreactivity screen of Harvey et al. (2022).

The series is described as follows: yeast display, Sf9 membrane polyspecificity reagent, FACS + sequencing; frameworks hold sequencing errors. In short, it runs like this: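 Synthetic nanobody libraries on Saccharomyces cerevisiae BJ5465 were galactose-induced for 36–48 hours, stained 1 hour at 4 °C with 10% biotinylated, detergent-solubilized Sf9 membrane reagent and enriched on streptavidin microbeads. FACS then separated cells into low and high (top ~1%) gates by anti-HA (expression) and streptavidin (reagent binding) fluorescence. Genes were colony-PCR amplified, MiSeq 2 × 250 sequenced and CDR-length filtered. A clone's polyreactivity label is that of its gate of origin.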
Consider “QDQLVESAGGLVQAGGSLSLSCAASGNIFVYYAMGWYRQAPGKERELVAAITSDVSTYYADSVKGRFTISRDNAKNTVYLQMNSLKPEDTAVYYCATTGYGSYVIYGGQGTQVTVSS”, for which the “polyreactivity (PSR sort gate)” value is on record as “low polyreactivity”. To “QVQLVESGGGLVQAGGSLRLSCAASGRTFLYYAMGWYRQAPGKERELVARITLDGGSTNYADSVKGRFTISRDNAKNTVYLQMNSLKPEDTAVYYCAAQRGGPFPRVVDLYDYWGQGTQVTVSS” belongs “low polyreactivity”; to “QDQLVESGGGLVQAGGSLRLSCAASGSTFQENAMGWYRQAPGKEREFVAAISGSGGSTYYADSVKGRFTISRDNAKNSVYLQMNSLKPEDTAVYYCAAYVTGYVNTVGSGWLVWGVDFWGQGTQVTVSS”, “low polyreactivity”. To “QVQLVESGGGLVQPGGSLRLSCAASGYTSSPYAMGWYRQAPGKERELVAGISSGGSTYADSVKGRFTISRDNAKNTVYLQMISLKPEDTAVYYCADVWYYWTFEFDYWGQGTQVTVSS” belongs “high polyreactivity”; to “QVQLVESGGGLVQAGSSLRLSCAASGSTFVNNAMGWYRQAPGKERELVAAITSGGSTNYADSVKGRFTISRDNAKNTVYLQMNSLKPEDTAVYYCNADGDSWYTGIPAVSHGYWGQGTQVTVSS”, “low polyreactivity”. To “QVQLVESGGGLVQAGGSLRLSCAASGRTFGYNTMGWYRQAPGKERELVATISRGGSTYYADSVKGRFTISRDNAKNTVYLQMNSLKPEDTAVYYCRYQSRFRYDYWGQGTQVTVSS” belongs “high polyreactivity”. On to “QVQLVESGGGLVQAGGSLRLSCAASGSILSLYTMGWYRQAPGKERELVAAITRSGGSTYYADSVKGRFTISRDNAKNTVYLQMNSLKPEDTAVYYCAATREVTSYSSAPRVYYWGQGTQVTVSS”, for which the “polyreactivity (PSR sort gate)” value is recorded as “high polyreactivity”. Then “QVHHVESGGGLVQAGGNLRLSCQASGSTFDENDMGWYRQPQGKERELVAVISICTSTNYADSVKGRFTISRDNAKNTVYLQMNSLKPEDTAVYYFDAFVPGSYLDAIVGNAFNYWGQGTQVTVSS”, with “low polyreactivity”; and “QVQLVESGGVLVQAGGSLLLSCAASGFTFGCYGMGWYRQARGKERELGAAITKSGGRTYYADSVKGRFTISRDNAKNTVYLQMNSLLREDTAVYYCAASSQGDGGYWGQGSQVTVSS”, with “high polyreactivity”; and “QVQLVESGGGLVQAGGSLRLSCAASGSTFGYYAMGWSRQAPGKERELVAVITYSGGSTYYADSVKGRFTISRDNAKNTVYLQMNSLKPEDTAVYYCAAVIGVWYYYTYDYWGQGTQVTVSS”, with “low polyreactivity”. Consider “QVQLVESVGGLVQAGCSLRLSCAASGSIIRTNTMGWYRQAPGKEREFVAAISRSGGSTYYADSVKGRFTISRDNAKNTVYLQMNSLKPEDTAGYYCNARWGLGSYGYWGQGTQVTVSS”, for which the “polyreactivity (PSR sort gate)” value is reported as “high polyreactivity”. To “QVQLVESGGGLVQAGGSLRLSCAASGSTLGANAMGWYRQAPGKERELVAAISISDGDTYYADSVKGRFTISRDNAKNPVYLQMNSLKPEDTAVYYCAADYWFQYRWYDYWGQGTQVTVSS” belongs “high polyreactivity”; to “QVQLVESGGGLVQAGGSLRLSCAASGSIFISSDRRLDRQAPGKERALVAAMRSRVGSTYYADSVKGRFTISRENGKNSDYFQMNSLKPEDTAVYYCKKDNAVDRRPWFQVTYVYWVQGTQVTVSS”, “low polyreactivity”. Take “QVQRVESGGGLVQAGGSLRLSCAASGSIFPYYAMGWYRQAPGKETELVATITYRGGSTNYADSVKGRFTISRDNAKNTVYLQMNSLKPEDTAVYSCAAYGYVLASPYPYSFVKLGYCGQGTQVTVSS”: the “polyreactivity (PSR sort gate)” value is recorded as “low polyreactivity”. “QVQLVESGGGLVQAGGSLRLSCAASGSIFSDNAMGWYRPAPGKESELVAAITYSGGRTSYADSVKGRFTISRDNAKNTVYLQMNSLKPEDTAVYYCNAEYYYWNREGDYWGQGTQVTVSS”: the “polyreactivity (PSR sort gate)” value is listed as “low polyreactivity”. Take “QVQLVESGGGLVQAGGSLRLICAASGGIFPTYDMVWYRQAPGKERELVAAIDRNGTSTTYSDSVKGRFTISRDNAKNTVYLQMNSLKPEDTEVYYCAAGYNDQTSAYDYWGHGTQVTVSS”: the “polyreactivity (PSR sort gate)” value is on record as “low polyreactivity”.

For the sequence “QVQLVETGGGLVQARGSLRLSCAASGRIFRRYAMGWYRQAPGKERELVAAISSGGSTDYADSVKGRFTISRDNAKNTVYLQMNSLKPEDTAVYYCARRGPYYNVGLFDSWGQGTQVTVSS”, the “polyreactivity (PSR sort gate)” value is on record as “low polyreactivity”. Turning to “QVQLVESGGGLVQAGGSLRLSCAASGSTFYRNAMGWYRQAPGKERELVAAISRGGSTYYADSVKGRFTISRDNAKNTVYLQMNSLKPEDTAVYYCNTDVNYAGYGWYYYWGQGTQVTVSS”, the “polyreactivity (PSR sort gate)” value is reported as “high polyreactivity”. Then “QVQLVESGGGLVQAGGSLRLSCAASGRTFKYNTMGWYRQAPGKERELVAVISRSGGRTYYADSVKGRFTISRDNAKNTVYLQMNSLKPEDTAVYYCAARARGNDGYYWGQGTQVTVSS”, with “high polyreactivity”; and “QVQLVESGGGLVQAGGSLRLSCAASGSIFTPNVMGWYRQAPGKERELVAAISQSGGSTFYADSVKGRFTISRDNAKNTVYLQMNSLKPEDTAVYYCATEYYGPVYDLDYDYWGQGTQVNVSS”, with “low polyreactivity”; and “QVQLVESGGGLVQAGGSLRLSCAASGFTFWYNDMGWYRQAPGKEREFVAAITTSGGNTYYADSVKGRFTISRDNAKNTVYLQMNSLKPEDTAVYYCAAEEGSSDATGYDYWGQGTQVTVSS”, with “low polyreactivity”. Then “QVQLVESGGGLVQAGGSLRLSCAASGRIFGSYAMGWYRQAPGKERELVAAINWRGGSTFYADSVKGRFTISRDNAKNTVYLQMNSLKPEDTAVYYCARRGYRQSGDYWGQGTEVTVSS”, with “low polyreactivity”; and “QVQLVESGGRLVQAGGSLRLSCAASGSTITPNSMGWYRQAPGKERELVAAITTGGSTKYADSVKGRFTISRDNAKKTVYLQLTSLNPADTAVYYCNTDRGAYFYVIWPPWTYDWGQGTQVTVTS”, with “low polyreactivity”. For “QVQLVESGGGLVQAGGSLRLSCAASGLIFAEYTMGWYRQAPGKERELVAAISWNGGSTYYADSVKGRFTISRDNAKNTVYLQMNSLKPEDTAVYYCAARYKRVKWYRYEYWGQGTQVTVSS”, the “polyreactivity (PSR sort gate)” value was “high polyreactivity”. Then “QVQLVESGGGLVQAGGSLRLSCAASGRTFVYNAMGWYRQAPGKERELVAAIDGGGDRTYYADSVKGRFTISRDNAKNTVYLQMNSLKQEDTAVYFCARDPGDTYYYSYPEGDYWGQGTQVTVSS”, with “low polyreactivity”; and “QVQLVESGGGLVQAGGSLRLSCAASGRILYTYAMGWYRQAPGKERELVATISSGGGTNYADSVKGRFTISRDNAKNTVYLQMNSLKPEDSAVYYCAARYGYSRGPYYRSDYWGQGTQVTVSS”, with “high polyreactivity”. To “QVQLVESGGGLVQAGGSLRLSCAASGSTIPWYAMGWYRQAPGKEREFVAAISWSSGRTYYADSVKGRFTISRDNAKNTVYLQMNSLKPEDTAVYYCAARQWAYYRDVEMGYWGQGTQVTVSS” belongs “high polyreactivity”; to “QVQLVESGGGLVQAGGSLRLAVLPPDLPSTLNDRGWYRQAPGKESELVAAITSGGNTYYADSVKGRFTISRDNAKNTVYLQMNSLKPEDTAVYYCAATYYWAWGGVYHSEFDYWGQGTQVTLSS”, “low polyreactivity”; to “QLQHVDSGGGLVQAGGSLRLSCATSGIIFYDYDIGWSRQAPEKESELVARISRNGGRTYYADSVKGRFTISRDNAKNTVYLQMNSLNPEDTAVYYCNGVYFVTTSPGSDYWGQGTQVTVSS”, “high polyreactivity”. To “QVHLVESGGGLVPAGGSLRLTCAASGSTLWFNAMRWYRQAPGKERELVAAISFYSGSTYYSDSVKGRFTISRDNANNTVYLQMNSLKPEDTAVYYCAARRRWWGYDYWGQATQVTVSS” belongs “high polyreactivity”.

Regarding “QVQLVESGGGLVQAGGSLRLSCAASGRTFYRYTMGWYRQAPGKERELVAGISWRGGTTYYADSVKGRFTISRDNAKNTVYLQMNSLKPEDTAVYYCAAKAGYRYGSLAYYKYDYWGQGTQVTVSS”, the “polyreactivity (PSR sort gate)” value is given as “high polyreactivity”. Then “QVQLVASGGGLVQAGGSLRLSCSASGSIFKYYAMGWYRQAPGKERELVAAISSSGNTYYADSVKGRFTISRDNAKNTVYLQMNSLKPEDTAVYYCAAGIRRYRTYDYWGQGTQVTVSS”, with “high polyreactivity”.

With “QVQLVESVGCLVQAGGSLRLSCAASGNIITNNAMGWYRQAPGKERELVAAITRGGNTNYADSVKGRFTISRDNAKKTVYLQMKSLKPEDTAVFYCAADRYVELLGYFFEYDYWGQGTQVTVSS”, the “polyreactivity (PSR sort gate)” value is given as “low polyreactivity”. Then “QVQLVESGGGLVQAGGSLRLSCAASGSTISGYAKGWYRQAPGKERELVATISRGGSTNYADSVKGRFTISRDNAKNTVYLQMNSLKPEDTEVYYCAAVVSDYVWRYEYWGQGTQVTVSS”, with “low polyreactivity”; and “QVQLVESGGGLVQAGGSLRLSCAASGRIFAFYARGWYRQAPGKERELVAAITSGGSTKYADSVKGRFTISRDNAKNTVYLQMNSLKPEDTAVYYCAAQYRYQRYSYAMEYWGQGTQVTVSS”, with “high polyreactivity”; and “QVQLVESGGGLVQAGGSLRLSCAASGRIFDLNVMGWYRQAPGKERELVAAIRSGGRTNYADSVKGRFTISRDNAKNTVYLQMNSLKPEDTAVYYCNVRRGYWHPRYGWANYDYWGQGTQVTVSS”, with “high polyreactivity”. To “QVQLVESGGGLVQAGGSLRLSCAASGSTFGYYAMGWYRQAPGKERELVAAITDSGGITHYADSVKGRFTISRDNAKNTVYLQMNSLKPEDTAVYYCYARYLGYGWFDYWGQGTQVTVSS” belongs “low polyreactivity”; to “QVQLQESGGGLVQAGGSLLSCAASGTISWVDEMGWYRQAPGNERELVAGIAGGGNTNYADSVKGRFTISRDNAKNTVYLQMNSLDTAVYSCAVVGFGRGTHIYWGQGTQVTVSS”, “high polyreactivity”; to “QVQLVESGGGLVQAGGSLRLSCAASGSIFYLNAMGWYRQAPGKERELVAAINSGGTTNYADSVKGRFTISRDNAKNTVYLQMNSLKPEDTAVYYCATDGYYYYYRVYKFDYWGQGTQVTVSS”, “low polyreactivity”.

Regarding “QVQLVESGGGLVQAGGSLRLSCAASGSIFRNYAMGWYRQAPGKERELVAAITRGGGSTYYADSVKGRFTISRDNAKNTVYLQMNSLKPEDTAVYYGAAGSTRERNPRYGYWGQGTQVTVSS”, the “polyreactivity (PSR sort gate)” value is reported as “high polyreactivity”.
